# PMC3297588
# Biological target: holo-hemoglobin (UniProt P01966)
# Test: SPR
# Sequence of UniProt P01966 (P01966 whole entry, chain 1 of 2): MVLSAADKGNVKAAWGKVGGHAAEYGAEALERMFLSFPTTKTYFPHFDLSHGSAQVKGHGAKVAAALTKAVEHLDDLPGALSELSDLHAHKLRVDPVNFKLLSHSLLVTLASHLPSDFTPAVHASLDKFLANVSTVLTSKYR
# Sequence of UniProt P01966 (P02070 whole entry, chain 2 of 2, further chain): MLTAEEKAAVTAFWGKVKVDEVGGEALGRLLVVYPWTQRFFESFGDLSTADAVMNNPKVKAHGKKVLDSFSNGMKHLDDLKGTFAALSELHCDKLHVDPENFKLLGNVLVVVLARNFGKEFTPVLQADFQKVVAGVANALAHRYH
substance,measurement,value
"IsdX1 (amino acids 26-146), wild-type, apo form (domain or fragment)",Kd,15 nM
